This note sets out measurements from US20130171059A1 (AbbVie / Abbott, published 2013).

The target in assay [1] is T1, Recombinant Human TNF-α/TNFSF1A (human, UniProt P01375 77-233).
T1 construct: Bought reagent for Biacore; also called huTNFα; HuTNFα
The assay is described as follows: SPR (Biacore). As to the method: (§1) The BIACORE assay (Biacore, Inc, Piscataway, N.J.) determined the affinity of antibodies or DVD-Ig proteins with kinetic measurements of on-rate and off-rate constants. Binding of antibodies or DVD-Ig proteins to a target antigen (for example, a purified recombinant target antigen) was determined by surface plasmon resonance-based measurements with a Biacore® 1000 or 3000 instrument (Biacore® AB, Uppsala, Sweden) using running HBS-EP (10 mM HEPES [pH 7.4], 150 mM NaCl, 3 mM EDTA, and 0.005% surfactant P20) at 25° C. All chemicals were obtained from Biacore® AB (Uppsala, Sweden) or otherwise from a different source as described in the text. For example, approximately 5000 RU of goat anti-mouse IgG, (Fcγ), fragment specific polyclonal antibody (Pierce Biotechnology Inc, Rockford, Ill.) diluted in 10 mM sodium acetate (pH 4.5) was directly immobilized across a CM5 research grade biosensor chip using a standard amine coupling kit according to manufacturer's instructions and procedures at 25 μg/ml. Unreacted moieties on the biosensor surface were blocked with ethanolamine. Modified carboxymethyl dextran surface in flowcell 2 and 4 was used as a reaction surface. Unmodified carboxymethyl dextran without goat anti-mouse IgG in flow cell 1 and 3 was used as the reference surface. For kinetic analysis, rate equations derived from the 1:1 Langmuir binding model were fitted simultaneously to association and dissociation phases of all eight injections (using global fit analysis) with the use of Biaevaluation 4.0.1 software. Purified antibodies or DVD-Ig proteins were diluted in HEPES-buffered saline for capture across goat anti-mouse IgG specific reaction surfaces. Antibodies or DVD-Ig proteins to be captured as a ligand (25 μg/ml) were injected over reaction matrices at a flow rate of 5 μl/minute. The association and dissociation rate constants, kₒₙ (M⁻¹s⁻¹) and koff (s⁻¹) were determined under a continuous flow rate of 25 μl/minute. Rate constants were derived by making kinetic binding measurements at different antigen concentrations ranging from 10-200 nM. The equilibrium dissociation constant (M) of the reaction between antibodies or DVD-Ig proteins and the target antigen was then calculated from the kinetic rate constants by the following formula: KD=koff/kₒₙ. Binding was recorded as a function of time and kinetic rate constants were calculated.
(In general: In SPR one partner is held on a chip, and binding of the other changes the refractive index at the surface.)

Assay [2] concerns the target T1, Recombinant Human TNF-α/TNFSF1A. The assay is described as follows: cell-based or functional assay.
In another assay the target is T2, Recombinant Human β-NGF (human, UniProt P01138 122-239, limits assumed).
T2 construct: Bought reagent for Biacore; also called huNGF; NGF (Rinat)
In words: SPR (Biacore). As to the method:
as §1

Assay [3] deals with T3, Recombinant Human SOST (human, UniProt Q9BQB4 24-213).
T3 construct: Biacore used the R&D reagent; also called Human Sclerostin
T3 sequence (looked up): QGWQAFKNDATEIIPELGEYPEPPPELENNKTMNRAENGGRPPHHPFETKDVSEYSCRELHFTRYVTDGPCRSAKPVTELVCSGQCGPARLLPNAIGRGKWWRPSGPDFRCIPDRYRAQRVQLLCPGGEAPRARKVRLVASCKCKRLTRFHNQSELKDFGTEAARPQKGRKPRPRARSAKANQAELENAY
In words: SPR (Biacore). How it is done: as §1

Assay [4] deals with T3, Recombinant Human SOST. The assay is described as follows: cell-based or functional assay.

T2 sequence (P01138 122-239 limits assumed): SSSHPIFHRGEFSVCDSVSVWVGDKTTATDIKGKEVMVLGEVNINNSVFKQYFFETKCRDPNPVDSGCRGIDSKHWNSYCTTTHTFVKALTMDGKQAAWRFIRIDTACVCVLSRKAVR
T1 sequence (P01375 77-233 limits assumed): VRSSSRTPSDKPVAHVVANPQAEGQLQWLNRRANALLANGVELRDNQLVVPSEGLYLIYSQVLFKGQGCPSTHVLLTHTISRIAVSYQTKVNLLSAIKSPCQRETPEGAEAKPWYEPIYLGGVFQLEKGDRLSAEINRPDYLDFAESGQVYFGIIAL

B1: AB218 (antibody, V domains shown)
VH: EVQLVESGGGLIQPGGSLRLSCAASGFTVSRNYMSWVRQAPGKGLEWVSVIYSGDRTYYADSVKGRFTISRDNSKNTLYLQMNSLRAEDTAVYYCARGEGGFDYWGQGTLVTVSS
VL: EIVMTQSPATLSVSPGERATLSCRASQSVSSNLAWYQQKPGQAPRLLIHGASIRATGLPARFSGSGSGTEFTLTISSLQSEDFAVYYCQQYNYWWTFGQGTKVEIKR
notes: Parent antibody
As to B1, in assay [1], the dissociation constant Kd (as a rule, the constant that tells how readily two partners part at equilibrium) turned out to be 0.041 nM; the koff (commonly a measure of how fast the partners let go of each other) was 7.3e-05 s⁻¹; the kon (commonly the second-order rate constant of association) amounted to 1.8e+06 M⁻¹ s⁻¹. Further, the “TNFα Neutralization Assay IC50 (L929 cells)” value in assay [2] is 0.179 nM.

B2: DVD1993 (bispecific antibody)
DVD-H: DIQMTQSPSSLSASVGDRVTITCRASQSISNNLNWYQQKPGKAPKLLIYYTSRFHSGVPSRFSGSGSGTDFTFTISSLQPEDIATYYCQQEHTLPYTFGQGTKLEIKRTVAAPEVQLVESGGGLIQPGGSLRLSCAASGFTVSRNYMSWVRQAPGKGLEWVSVIYSGDRTYYADSVKGRFTISRDNSKNTLYLQMNSLRAEDTAVYYCARGEGGFDYWGQGTLVTVSS
DVD-L: QVQLQESGPGLVKPSETLSLTCTVSGFSLIGYDLNWIRQPPGKGLEWIGIIWGDGTTDYNSAVKSRVTISKDTSKNQFSLKLSSVTAADTAVYYCARGGYWYATSYYFDYWGQGTLVTVSSASTKGPEIVMTQSPATLSVSPGERATLSCRASQSVSSNLAWYQQKPGQAPRLLIHGASIRATGLPARFSGSGSGTEFTLTISSLQSEDFAVYYCQQYNYWWTFGQGTKVEIK
notes: VH/VL crossover DVD-Ig; also called DVD1993H + DVD1993L; copies: 2 + 2
Take B2: in assay [1], the equilibrium dissociation constant (Kd) was determined as 0.43 nM, the koff came out at 3.5e-05 s⁻¹ and the kon was 81000 M⁻¹ s⁻¹. Also, in the assay with Recombinant Human β-NGF, the dissociation constant (Kd) amounted to 0.0047 nM, the koff turned out to be 1.5e-05 s⁻¹ and the kon came to 3.3e+06 M⁻¹ s⁻¹. In addition, in assay [2], the “C-Terminal VD TNFα Neutralization Assay IC50 (L929 cells)” value was found to be 2.08 nM.

B3: AB213 (antibody, V domains shown)
VH: QVQLKESGPGLVAPSQSLSITCTVSGFSLTDYGVNWVRQPPGKGLEWLGMIWGDGSTDYDSTLKSRLSISKDNSKSQIFLKMNSLQTDDTARYYCAREWHHGPVAYWGQGTLVTVSA
VL: DIVMTQSHKFMSTTVGDRVSITCKASQAVSSAVAWYQQKPGQSPKLLIYWASTRHTGVPDRFTGSGSVTDFTLTIHNLQAEDLALYYCQQHYSTPFTFGSGTKLEIKR
notes: Parent antibody
As to B3, in assay [1], the equilibrium dissociation constant (Kd) is 0.025 nM, the off-rate (koff) was 8.2e-05 s⁻¹ and the on-rate (kon) worked out at 3.2e+06 M⁻¹ s⁻¹. The “TNFα Neutralization Assay IC50 (L929 cells)” value in assay [2] worked out at 0.244 nM.

B4: AB022 (antibody, V domains shown)
VH: EVQLQQSGPELVTPGASVKISCKASGYTFTDHYMSWVKQSHGKSLEWIGDINPYSGETTYNQKFKGTATLTVDKSSSIAYMEIRGLTSEDSAVYYCARDDYDASPFAYWGQGTLVTVSA
VL: DVQMIQSPSSLSASLGDIVTMTCQASQGTSINLNWFQQKPGKAPKLLIYGSSNLEDGVPSRFSGSRYGTDFTLTISSLEDEDLATYFCLQHSYLPYTFGGGTKLEIKR
notes: Parent antibody; also called SOST parent antibody
As for B4, in the assay with Recombinant Human SOST [3], the Kd is 0.018 nM, the koff worked out at 0.00038 s⁻¹ and the on-rate constant (kon) is 2.1e+07 M⁻¹ s⁻¹. For the same molecule, the “SOST Neutralization Assay IC50 (Wnt-1/luciferase HEK clone #14)” value with Recombinant Human SOST [4] came out at 34.8 nM.

B5: DVD1982 (bispecific antibody, not shown: a dimerising Fc or GST)
heavy: DIQMTQSPSSLSASVGDRVTITCRASQGIRIDLGWYQQKPGKAPKRLIYAASTLQSGVPSRFSGSGSGTEFIFTISSLQPEDFASYYCLQHKSYPLTFGGGTKVEIKRTVAAPEVQLQQSGPELVTPGASVKISCKASGYTFTDHYMSWVKQSHGKSLEWIGDINPYSGETTYNQKFKGTATLTVDKSSSIAYMEIRGLTSEDSAVYYCARDDYDASPFAYWGQGTLVTVSA
light: QVQLVESGGGVVQPGRSLRLSCAASGFTFSSYDMHWVRQAPGKGLEWVAVIWSDGSIKYYADSVKGRFTISRDNSKNTLYLQMNSLRAEDTAVYYCAREVESAMGGFYYNGMDVWGQGTTVTVSSASTKGPDVQMIQSPSSLSASLGDIVTMTCQASQGTSINLNWFQQKPGKAPKLLIYGSSNLEDGVPSRFSGSRYGTDFTLTISSLEDEDLATYFCLQHSYLPYTFGGGTKLEIKR
Consider B5, for which, in assay [2], the N-Terminal VD TNFa Neutralization Assay IC50 (L929 cells) is 0.017 nM. Also, in the assay with Recombinant Human SOST [4], the C-Terminal VD SOST Neutralization Assay IC50 (Wnt-1/luciferase HEK clone #14) is > 100 nM.

B6: DVD1985 (bispecific antibody)
DVD-H: DIQMTQSPSSLSASVGDRVTITCRASQSISNNLNWYQQKPGKAPKLLIYYTSRFHSGVPSRFSGSGSGTDFTFTISSLQPEDIATYYCQQEHTLPYTFGQGTKLEIKRTVAAPQVQLVESGGGVVQPGRSLRLSCAASGFTFSSYDMHWVRQAPGKGLEWVAVIWSDGSIKYYADSVKGRFTISRDNSKNTLYLQMNSLRAEDTAVYYCAREVESAMGGFYYNGMDVWGQGTTVTVSS
DVD-L: QVQLQESGPGLVKPSETLSLTCTVSGFSLIGYDLNWIRQPPGKGLEWIGIIWGDGTTDYNSAVKSRVTISKDTSKNQFSLKLSSVTAADTAVYYCARGGYWYATSYYFDYWGQGTLVTVSSASTKGPDIQMTQSPSSLSASVGDRVTITCRASQGIRIDLGWYQQKPGKAPKRLIYAASTLQSGVPSRFSGSGSGTEFIFTISSLQPEDFASYYCLQHKSYPLTFGGGTKVEIK
notes: VH/VL crossover DVD-Ig; also called DVD1985H + DVD1985L; copies: 2 + 2
B6: in assay [1], the Kd came out at 0.43 nM, the off-rate constant (koff) was determined as 1.9e-05 s⁻¹ and the on-rate (kon) came to 45000 M⁻¹ s⁻¹. In the assay with Recombinant Human β-NGF, the Kd worked out at 0.012 nM, the koff turned out to be 3.7e-05 s⁻¹ and the on-rate (kon) came out at 3.1e+06 M⁻¹ s⁻¹. In assay [2], the “C-Terminal VD TNFα Neutralization Assay IC50 (L929 cells)” value was determined as 4.51 nM.

B7: DVD1959 (bispecific antibody, not shown: a dimerising Fc or GST)
heavy: DVQMIQSPSSLSASLGDIVTMTCQASQGTSINLNWFQQKPGKAPKLLIYGSSNLEDGVPSRFSGSRYGTDFTLTISSLEDEDLATYFCLQHSYLPYTFGGGTKLEIKRTVAAPQVQLKESGPGLVAPSQSLSITCTVSGFSLTDYGVNWVRQPPGKGLEWLGMIWGDGSTDYDSTLKSRLSISKDNSKSQIFLKMNSLQTDDTARYYCAREWHHGPVAYWGQGTLVTVSA
light: EVQLQQSGPELVTPGASVKISCKASGYTFTDHYMSWVKQSHGKSLEWIGDINPYSGETTYNQKFKGTATLTVDKSSSIAYMEIRGLTSEDSAVYYCARDDYDASPFAYWGQGTLVTVSAASTKGPDIVMTQSHKFMSTTVGDRVSITCKASQAVSSAVAWYQQKPGQSPKLLIYWASTRHTGVPDRFTGSGSVTDFTLTIHNLQAEDLALYYCQQHYSTPFTFGSGTKLEIKR
For the molecule B7, the C-Terminal VD TNFα Neutralization Assay IC50 (L929 cells) in assay [2] was determined as 1.52 nM. Further, the N-Terminal VD SOST Neutralization Assay IC50 (Wnt-1/luciferase HEK clone #14) in the assay with Recombinant Human SOST [4] stood at 54.2 nM.

B8: AB217 (antibody, V domains shown)
VH: QVQLVESGGGVVQPGRSLRLSCAASGFTFSSYDMHWVRQAPGKGLEWVAVIWSDGSIKYYADSVKGRFTISRDNSKNTLYLQMNSLRAEDTAVYYCAREVESAMGGFYYNGMDVWGQGTTVTVSS
VL: DIQMTQSPSSLSASVGDRVTITCRASQGIRIDLGWYQQKPGKAPKRLIYAASTLQSGVPSRFSGSGSGTEFIFTISSLQPEDFASYYCLQHKSYPLTFGGGTKVEIKR
notes: Parent antibody
Regarding B8, in assay [1], the Kd was determined as 0.028 nM, the koff is 4.8e-05 s⁻¹ and the kon worked out at 1.7e+06 M⁻¹ s⁻¹. Also, the “TNFα Neutralization Assay IC50 (L929 cells)” value in assay [2] came to 0.313 nM.

B9: DVD1983 (bispecific antibody, not shown: a dimerising Fc or GST)
heavy: DVQMIQSPSSLSASLGDIVTMTCQASQGTSINLNWFQQKPGKAPKLLIYGSSNLEDGVPSRFSGSRYGTDFTLTISSLEDEDLATYFCLQHSYLPYTFGGGTKLEIKRTVAAPQVQLVESGGGVVQPGRSLRLSCAASGFTFSSYDMHWVRQAPGKGLEWVAVIWSDGSIKYYADSVKGRFTISRDNSKNTLYLQMNSLRAEDTAVYYCAREVESAMGGFYYNGMDVWGQGTTVTVSS
light: EVQLQQSGPELVTPGASVKISCKASGYTFTDHYMSWVKQSHGKSLEWIGDINPYSGETTYNQKFKGTATLTVDKSSSIAYMEIRGLTSEDSAVYYCARDDYDASPFAYWGQGTLVTVSAASTKGPDIQMTQSPSSLSASVGDRVTITCRASQGIRIDLGWYQQKPGKAPKRLIYAASTLQSGVPSRFSGSGSGTEFIFTISSLQPEDFASYYCLQHKSYPLTFGGGTKVEIKR
Consider B9, for which the C-Terminal VD TNFα Neutralization Assay IC50 (L929 cells) in assay [2] is 0.127 nM. In the assay with Recombinant Human SOST [4], the N-Terminal VD SOST Neutralization Assay IC50 (Wnt-1/luciferase HEK clone #14) is > 360 nM.
